This note sets out measurements from the NTF2 design screens of Basanta et al. (2020).

The nature of this data set: protease stability score; higher = more stable; yeast display proteolysis, trypsin and chymotrypsin.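 Note: log10 excess protease needed over predicted unfolded state with 0 meaning unfolded.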

In turn, “DKEILDLVNEFLKAQRDNDPDRVSELADPNVKVHYGDKQIRGREEVNKQVEKEQKEIQVDFRIKHVTVENGRADLNFRYHANVNGQPISFDARIEMQFHNGRLKRLVLRMPEEAVKTMDS” returned a protease stability score of 0.118. As for “DKEKEADQQVRTADEIYQTGNPEEAKKLADPNVDVRIGDKEYHGDRELAQIIVEKRERVDSLVFHVERINVHPGRFQLNVVLTLKHNGKHETKKEEFVMTKRNGQLRVVHMRDQ”, the figure is 0.056.

Sequence “DKEKEAKKAIDKMITAIQHNDEDRAREMADPNVRIKYGDKQYHGRETMEDWIRTLRNSYDHLDIKLTDMKTDGDKIHIIIQYEADHNGQRTRDRVDLTMRRDNGRVKLVSAKEQ” had a protease stability score of 0.232. To “DKELQDTAHKLAKNGDFSRLAELADEDVQIKIGDERVTGREEQKKLVEVQQRRIDHVEVDRVHAQGNKVSVNMTIVVDGESRTVNIDITMHNGRVKEIVYNATSEEARKEMTKWYR” belongs -0.362; to “DKELRHSWEDQLRAEEEGDENRLRELIDPNASFVVGDKSIHGREQFADDMRRKLTEMRVEIKSYSVHAHNGHLDIKVHRRVNHDGEPKEDTYRADVQADNGRIVRVTIQSDG”, -0.652.

With “DKELRKHLTEFVKNYQHGNERELNKYADPNVKFRYGDKTLNGREEWMKHIQRLKKEIRFEIDDFRIRARNGELDMTFDFKQEVNGRPKSDRAQMNVVMHNGKIVEIDFRVDPTFEKEVKG”, the protease stability score worked out at 0.376.

The sequence “DKELWEWFRRWLENYRTGNHNNIREMADPNVRMVVGDKHISGREHYAEEVSRQVHKLRVSLDFKDYDLRPNRVNVDAVIRMTSDGEPDQSKWSQTLQFSNGRLHQANVTMNQ” had a protease stability score of 0.192. The sequence “DKEMASVVERWLDALQRNDPDQANNNADKDATFDVGDKKVKGRDTLKKLVEDLRREMRFNITSMSITVHGDKVVVTYRVSMQHDGQPMQHRYFLHAQDKNGHIHNLHVQKSD” came in with a protease stability score of 0.44.

“DKENLETLHELMTALERGDEQKVADEIDPNAKLQYGDKEIHGRKQAHRFIKTVKDQQRFHIQVKDLKVKGDTMDLRAEVEFQHNGHPDSDVIVVNARAHNGHISTLTVTKDD” displayed a protease stability score of -0.223. Turning to “DKEVEEVWKKMLTAQKYGDEKRYKDLADPNVKYNIGDKKIDGRDTYAEEMKKRRDEIRLRMQITDVKQQGDKLHVRFKIEAEINGKPISEDVTAVLVNHNGKVKHYSMHVPHEFFKKQQK”, the protease stability score came out at 0.213. As to “DKEVIKQLKHFMKALEKGDPDKLVELADPEAKYEYGDRTYKGMSNVAEELVNTRREIRFQLTLQSYEVQGEKARVKAVYVKDRNGKPDNQVVVIEMEAHNGKIKSMQERSDQ”, the protease stability score stood at 0.501. For the sequence “DKEVNNMAEKFLDAFRTNDPDQVRRLADENASFRVGDKVLTGMTEAVRELHRQVKQMEVRITDVKNSVQGDQANLDIHFDVHDNGKPDTRRMVLVVNVENGRIREVEVNQDD”, the protease stability score was 0.4. To “DKHAAQVVLEIMHAVDTGNENEVMKLIDPNARVEYGDKSITGREDIARHLIHDAKHINRRWSLKDIDVQGEKVFIKFEYKTNKNGRPDKADVNLEAKAHNGTVTTMRLQETR” belongs 0.368; to “DKHLEDLARTLVHALRTGDPQMINHLFDENARVEVGNRRVHGREDANQRMKEINSQARMHVRLTSLRVDENRADLTVDASARVNGQPNTLRYQFWFHQHNGRITSMSARMSEHDVKQFES”, -0.278; to “DKHQMHILKSIVENEQKGDEKSVSKMVDPNARFHVGDKRISGREQKDEDVQRKKDEIRVQIDKVEFNHSNGRVVVNMDMTIDRNGKPKTFKAQAHATFHNGTATSQTQTNDG”, -0.614. On to “DKHRVEHAKRILEIWTNGDEKSVKDLFDPNVRVDVGDKRITGREQLAREWKRRRDEMEWSLTVHEYKDDPNRVDINVHFNRNKNGRPRTQQQHLRIDMDNGSVRQLRIEDSK”, for which the protease stability score came to 0.216.

On to “DKKANSMAHDLIRNRNSNNPERLKEMMDPNVEIVIGDKTVNGTHEYERQQRQRDRQIQIDVKSVTFKDRPNHAQVRFDAVFHHNGQPDRRVQEVIIRQRNGKVKHIHVQDTE”, for which the protease stability score is -0.365. Sequence “DKKDVDRVIKLLEQGDWESLVEMMDENARLQVGNKNYHGRTQVRHAATRLQDRIDHVKIDQVDVHNGRVDARFKANINGKTMDVQVRINVDNGHIKYVRVTVRSEELRHELDRLLS” had a protease stability score of 0.961. “DKKEHQEAAETFDRALKRGDPDTAMSLFDKDARANVGDKTYQGSEKLSEAMHRLSEEADRFHVRDVHFTNGEVSVNMYLNVNGKRVQVDVHIELSNGRAKEVTFNPDQLNEMQN”: the protease stability score is -0.119. On to “DKKLNKQMEEWVQAVNTGDSEQLEDLVDPNVRLEVGDKQFHGREEVRRQQTKKIEEIRLHLDLKDVKAENGHAQLDVNVEFEHNGQPNSNRRTLNAVVHNGKIKHLSDKTDP”, for which the protease stability score is -0.347.

For “DKKLSRQFREFWRAMEDGDPDKLRENADPNVKYVVGDKTIHGRETYVKEAQDRRREMRVELDTMSINDKGERITVEYVQVNEHNGRPKQAVYRQVILFKNGRIKEVRQTKTD”, the protease stability score is -0.073. To “DKKQVHDVARTLVQYYVSGNSERVKQLGKEDVELHAGDRTYHGVDQMAKVVEQFKKYGVELEVKDVKVDGNRVTARVQFHKAGTTWEFKVDVQADGGKVDQVRVNVTEEAIKHIQHG” belongs 0.797; to “DKNNLKRYDKLLKILQTGDEHKAKKLADPNVKVKVGDKEIKGWDRFVHESAKRWREARIELKIKHVDVSGDKVTIDYEAEVEVNGKPIRYTATFRFVVHNGRIKTINFSMDENQRETVKR”, 0.007.

Sequence “DKQDLDKLRELWEDELNGDHRSLREQVDPNAKVEIGDKEIHGRDDFAKDAKRRKEEIRVEMRVKSLSASGDTIDAKVHLDFKVNGKPIRLTVHMHVKVENGKFVDLNVRIDERQVRKIRK” yielded a protease stability score of 0.089. As for “DKREQSEIAKEVLRMLLTGDPDQNHKLADKDVQFSVGDRTITGREDLDRWLREMHHHIDTQEVKSLDVNGEDVVIDVVATFNGVHMRFVIRVEVHNGRIVNMRMEVTSEETLKRVDG”, the figure is -0.092; as for “DKSANHQIEQLMRNINEGDKDKVREQMDPNVEVHVGDKEVHGREQYAREVRKEQEEMRVQFKVEHVKDRNGQAELRIQVQLDHNGKPETRVQHFVAVLDNGRVKSATAKIDK”, -0.084.

For the sequence “DKSAQDLFRKLLEALDTGDEKTAEENMDPNAHARVGDKEVHGMDEYAKHRATENRRMKIRWNSVNLRVHNGQLNVDVDVEVTENGRPSRSRARVVMRMKNGRIKRLEVNEHK”, the protease stability score is -0.118.

In the case of “DKSMQEEMERVARENDFHRLAELADPNVKWQYGDKHLHGRTAQREFVRLNHEAVDHLEVQDVKFHGENVEIDLVMTVNGKEIKVVLQAHVHNGRIKEMRWQVTNEDEKRKLEEAVS”, the protease stability score is -0.183.

Take “DKTAAHVVHQFLRNVDTGDPKKASDNADPNVTINVGDKEIRGRENLQKEIDKQKKDWRQTVRVTSFKDHNGKVHVDARYTADVNGKPIDDTFQFEMQAHNGKLKYVNVQLDEDKKKEQDS”: the protease stability score stood at 0.032.

The sequence “DKTHAETVRKLVERGNWEELARMADKDAHVNYGNKSVHGRERVESLLKRFSSRVDHVDLKDVDVQGDHVHMRYVAVFDGRRVDVSAVIFVDNGRIKSIHYRATDEEVKRRMDELLD” returned a protease stability score of 1.33. As for “DNDAMRQANTLVEILNTGDPDRFVEYVDPNVDIKIGDKSIHGREDARRWVTELKRQMHIHLSVKRVDVEGEHLNLHADQVNDENGQPDKDHVLIIMRFHNGRVKVLKQEHKS”, the figure is 0.53; as for “DNDAREAARRLLDAWRTGDEDTVRDMADENAKVTVGDKTIQGRDHLVDWIHQHYHEQRVDVKSVHMDAQGDKVDVKLDAVSDRNGQPRRYVEHVKITMKNGKMKSLEMHREG”, 0.753; as for “DNDHWRKIATDMIKALQEGDRQKVKKLVDKDAKARIGDRDVHGREHIVTLLYEMQQRIDHMQLVDVKVRGEEVVVRYHAKFNGKVVDVSITLHFRNGKVKEMRVDPRAVESLKK”, 1.22. “DNDKLAKDAVDTMDEVLQDGDEKKLNDLFDPNARLRVGDHEIHGREQIHDWIKTRLNQIDHIEMRIVHVRREGEKALARVTFVNQHNGKQDEREAVYRFTVENGRATFEEVNIK” gave a protease stability score of -0.116. On to “DNDRVRKAHKLMRVIETGDPDKVNEYVDPNVHVEYGDKTIHGREELKKFIEKERHEMRVELKRVSADATGNKVDIKVHRVLDKNGKPETNNVRIIIVWDGNKIKSVSFQKDK”, for which the protease stability score was 0.849. To “DNDTQHRLAERFNHAVETGDPDKIMKLVPEDVRFTVGDKEYHGRESLSKVIKDFRDHADRVKVESVRVNNGRIDVQMRYNRNGQDRVMTFLLTVHNGKIENVNIQSG” belongs 1.58; to “DNEAARSARRNLKQIERGNEHKVREMADKNAHVRVGDKDLHGREDISTWVKKLKEEMRVRFDLRRVNDKGSTVDLDVTLEMTVNGKPVTMKVTAKLSIHNGKIQSLIWNISDEQKEQRKG”, 0.336.

Sequence “DNEDAKRVVKLAEHNDFKKWAENADKDVRMKVGDKTWHGRSQFSTAVERLQKNIDHVDLRSVKTHNGRVTIKEQQEVDGRKTDVRFRLQVHNGHIKRVEVQVTDEEDKKTMEKLLS” returned a protease stability score of -0.23.

The sequence “DNEDAQQAIQMLKAELDGDEERAAQLMDPNARFNIGDKEIHGRETFQHWLREVKKHMHVKIDRLEIDVEGDKVDVRMEFVQNHNGKPHRAEATVEVRAENGHVKEVTVDVKG” displayed a protease stability score of 0.551.

With “DNEEEAKKFVEELKRQYDEGNEHQIANQAPENATARVGDKNYHGRENVETYLRQIVRRADTVEIRIRSVEVHGDNVVVDFHYVLEYNGTRRNVRMKLVLDDVNGRKVALVIVQS”, the protease stability score stood at 0.572. As for “DNEEHKVLEELIRAIQEGNEKDIKRLIDPNARVNVGDKTYHGREQIVKWWFDLQQELEFEIDIKRWHVNNGQIRADIKYVRNNNGKPESFRADMQVTASNGKFKSVSVHETK”, the figure is 1.43; as for “DNEFREEVKKAIDTGDPLEMVRQADKDVEVHVGDKYWHGREQVEKLMTLWKEQVDHLHVDRITHEPGRVKVDAVAQFNGVEFRFNMVIHAHNGKIKSVQFKNTDEDVKKKLEKILD”, -0.288. As for “DNEKALERAEEAARAVARGNEDELRKLAPPDVSAQYGDHRINGMDQVVEQIKEMRRAVDHIKIQTIRKNGNSVTLTVELTYNGQQMHMHVEVEVHNGELKHVRMHVTDEERWRRQES”, the figure is 0.855.

In turn, “DNEKVARNAADKLMTAINTGDPDQFVKLFDENAHVDVGDKTWRGRDKLKEWARKIVEQVDHLRARVTHMDVDGDKASVVFVVTLNKNGKEHSEQHEATAEVSGEQAVFKSLRHK” registered a protease stability score of 1.38. To “DNENVNHVKTWFQNIQENNPDELIKLIDKDARLRVGDKEFHGREQAKKEIEKRIRHIELEFKHVQVDHHNGRVVAHAVYTQNRNGRPKKVNVRYVFQIHNGKIKRAEQDEDG” belongs 0.263; to “DNETVDEALKAFNKNDERNMMRLADENAEMEIGDTEYHGQEQVQTLLQKLNQQVDHREFHSIETEPNRIRVDYRAVFNGRDIRVHVHLEFENGRLTRVRFDVRDPRQQKHLQDLLK”, 0.344. In the case of “DNEVAHNIMRAFKQQWRGNEDKALELMDPNAEVHVGNKQIHGMEEWVRRTAHKARRARVKVSRIDVTVHNGKVRIKMNYTVSVNGKPISWHADITVQADNGRAKHITQQVPEDLEERERG”, the protease stability score worked out at 0.112.
